Assay [1] has as its target canine FcRn (FcRn large subunit with canine beta-2-microglobulin) (canine). The assay can be described thus: SPR pH 6.0, SASA-Fc captured on BSA, FcRn 100-800 nM.
The target is the same in assay [2]. The assay is described as follows: SPR pH 5.5, SASA-Fc captured on BSA, FcRn 100-800 nM.
The target is the same in assay [3]. The assay is described as follows: SPR pH 7.4, FcRn coupled at high density, IgG 400 nM.
Assay [4] shares this target. The assay is described as follows: SPR pH 6.0, IgG coupled to CM5, FcRn 50-800 nM.
Assay [5] has the same target. The assay can be described thus: SPR pH 5.9, IgG coupled to C1 chip, 1:1 kinetic fit.
For assay [6] the target is unchanged. The assay is described as follows: SPR pH 6.0, SASA-Fc captured on BSA, FcRn 200 nM.

Experimental findings from patent publication US20240327497A1 are described below.

Several values for one entry are separate records, joined by “and”; a condition that tells them apart may be missing. Equal entries are not always repeated.

B1: canine IgGB Fc (CH2-CH3) YTE variant (L252Y/A254T/T256E) with N-terminal SASA tag (Fc fusion, part only; not given: SASA tag, not shown: another chain or arm of the molecule; small tags and cut ends)
Fc: APEMLGGPSVFIFPPKPKDTLYITREPEVTCVVVDLDPEDPEVQISWFVDGKQMQTAKTQPREEQFNGTYRVVSVLPIGHQDWLKGKQFTCKVNNKALPSPIERTISKARGQAHQPSVYVLPPSREELSKNTVSLTCLIKDFFPPDIDVEWQSNGQQEPESKYRTTPPQLDEDGSYFLYSKLSVDKSRWQRGDTFICAVMHEALHNHYTQESLSHSPGK
One may read the Kd as the free concentration of one partner at which half of the binding sites on the other are occupied at equilibrium, for simple one-to-one binding. A high value points to lower affinity. The term koff denotes a measure of how fast the partners let go of each other. A high value points to fast dissociation. In general, kon refers to the rate constant with which the complex forms. A high value points to fast association. In assay [1], B1 came in with a Kd of 210 nM, a koff of 0.0659 s⁻¹ and a kon of 314000 M⁻¹ s⁻¹. In assay [2], this molecule had a Kd of 184 nM, a koff of 0.046 s⁻¹ and a kon of 250000 M⁻¹ s⁻¹.

B2: anti-NGF canine IgGB antibody, Fc variant N434R + T286L (antibody, part only; not given: Anti-NGF variable domains, not shown: another chain or arm of the molecule)
Fc: APEMLGGPSVFIFPPKPKDTLLIARTPEVTCVVVDLDPEDPEVQISWFVDGKQMQLAKTQPREEQFNGTYRVVSVLPIGHQDWLKGKQFTCKVNNKALPSPIERTISKARGQAHQPSVYVLPPSREELSKNTVSLTCLIKDFFPPDIDVEWQSNGQQEPESKYRTTPPQLDEDGSYFLYSKLSVDKSRWQRGDTFICAVMHEALHRHYTQESLSHSPGK
Consider B2, for which, in assay [3], the Kd came out at 134 nM. Further, in assay [4], the Kd was 173 nM, the koff turned out to be 0.031 s⁻¹ and the kon is 180000 M⁻¹ s⁻¹.

B3: anti-NGF canine IgGB antibody, Fc variant N434R (antibody, part only; not given: Anti-NGF variable domains, not shown: another chain or arm of the molecule)
Fc: APEMLGGPSVFIFPPKPKDTLLIARTPEVTCVVVDLDPEDPEVQISWFVDGKQMQTAKTQPREEQFNGTYRVVSVLPIGHQDWLKGKQFTCKVNNKALPSPIERTISKARGQAHQPSVYVLPPSREELSKNTVSLTCLIKDFFPPDIDVEWQSNGQQEPESKYRTTPPQLDEDGSYFLYSKLSVDKSRWQRGDTFICAVMHEALHRHYTQESLSHSPGK
With B3, in assay [3], the Kd turned out to be 234 nM and the kon came to 8.25e+08 M⁻¹ s⁻¹. In assay [4], the Kd came to 497 nM, the koff was determined as 0.107 s⁻¹ and the kon stood at 216000 M⁻¹ s⁻¹.

B4: anti-NGF canine IgGB antibody, Fc variant N434Y (antibody, part only; not given: Anti-NGF variable domains, not shown: another chain or arm of the molecule)
Fc: APEMLGGPSVFIFPPKPKDTLLIARTPEVTCVVVDLDPEDPEVQISWFVDGKQMQTAKTQPREEQFNGTYRVVSVLPIGHQDWLKGKQFTCKVNNKALPSPIERTISKARGQAHQPSVYVLPPSREELSKNTVSLTCLIKDFFPPDIDVEWQSNGQQEPESKYRTTPPQLDEDGSYFLYSKLSVDKSRWQRGDTFICAVMHEALHYHYTQESLSHSPGK
In assay [3], B4 displayed a Kd of 80.2 nM, a koff of 0.23 s⁻¹ and a kon of 2.87e+06 M⁻¹ s⁻¹. In assay [4], this molecule gave a Kd of 70.8 nM, a koff of 0.0181 s⁻¹ and a kon of 255000 M⁻¹ s⁻¹.

B5: anti-NGF canine IgGB antibody, Fc variant A426Y + N434R (antibody, part only; not given: anti-NGF variable domains and light chain, not shown: another chain or arm of the molecule; small tags and cut ends)
Fc: APEMLGGPSVFIFPPKPKDTLLIARTPEVTCVVVDLDPEDPEVQISWFVDGKQMQTAKTQPREEQFNGTYRVVSVLPIGHQDWLKGKQFTCKVNNKALPSPIERTISKARGQAHQPSVYVLPPSREELSKNTVSLTCLIKDFFPPDIDVEWQSNGQQEPESKYRTTPPQLDEDGSYFLYSKLSVDKSRWQRGDTFICYVMHEALHRHYTQESLSHSPGK
As for B5, the Kd in assay [3] worked out at 129 nM. Also, in assay [4], the dissociation constant (Kd) stood at 288 nM, the koff stood at 0.0591 s⁻¹ and the on-rate constant (kon) was found to be 206000 M⁻¹ s⁻¹.

B6: anti-NGF canine IgGB antibody, Fc variant A426Y + D312P (antibody, part only; not given: anti-NGF variable domains and light chain, not shown: another chain or arm of the molecule; small tags and cut ends)
Fc: APEMLGGPSVFIFPPKPKDTLLIARTPEVTCVVVDLDPEDPEVQISWFVDGKQMQTAKTQPREEQFNGTYRVVSVLPIGHQPWLKGKQFTCKVNNKALPSPIERTISKARGQAHQPSVYVLPPSREELSKNTVSLTCLIKDFFPPDIDVEWQSNGQQEPESKYRTTPPQLDEDGSYFLYSKLSVDKSRWQRGDTFICYVMHEALHNHYTQESLSHSPGK
Regarding B6, the Kd in assay [3] is 2900 nM; in assay [5], 45.1 nM; in assay [4], 421 nM. Besides, the koff in assay [3] was 0.171 s⁻¹; in assay [5], 0.0497 s⁻¹; in assay [4], 0.0577 s⁻¹. In addition, the kon in assay [3] was 58900 M⁻¹ s⁻¹; in assay [5], 1.1e+06 M⁻¹ s⁻¹; in assay [4], 137000 M⁻¹ s⁻¹.

B7: anti-NGF canine IgGB antibody, Fc variant A426H + T286Y (antibody, part only; not given: anti-NGF variable domains and light chain, not shown: another chain or arm of the molecule; small tags and cut ends)
Fc: APEMLGGPSVFIFPPKPKDTLLIARTPEVTCVVVDLDPEDPEVQISWFVDGKQMQYAKTQPREEQFNGTYRVVSVLPIGHQDWLKGKQFTCKVNNKALPSPIERTISKARGQAHQPSVYVLPPSREELSKNTVSLTCLIKDFFPPDIDVEWQSNGQQEPESKYRTTPPQLDEDGSYFLYSKLSVDKSRWQRGDTFICHVMHEALHNHYTQESLSHSPGK
In assay [3], B7 registered a Kd of 940 nM, a koff of 0.128 s⁻¹ and a kon of 136000 M⁻¹ s⁻¹. In assay [5], this molecule yielded a Kd of 21.3 nM, a koff of 0.0286 s⁻¹ and a kon of 1.34e+06 M⁻¹ s⁻¹. In assay [4], this molecule showed a Kd of 255 nM, a koff of 0.0409 s⁻¹ and a kon of 160000 M⁻¹ s⁻¹.

B8: anti-NGF canine IgGB antibody, Fc variant A426Y + T286L (antibody, part only; not given: Anti-NGF variable domains, not shown: another chain or arm of the molecule; small tags and cut ends)
Fc: APEMLGGPSVFIFPPKPKDTLLIARTPEVTCVVVDLDPEDPEVQISWFVDGKQMQLAKTQPREEQFNGTYRVVSVLPIGHQDWLKGKQFTCKVNNKALPSPIERTISKARGQAHQPSVYVLPPSREELSKNTVSLTCLIKDFFPPDIDVEWQSNGQQEPESKYRTTPPQLDEDGSYFLYSKLSVDKSRWQRGDTFICYVMHEALHNHYTQESLSHSPGK
Regarding B8, in assay [3], the dissociation constant Kd was 1120 nM, the koff was 0.092 s⁻¹ and the kon stood at 82300 M⁻¹ s⁻¹. In assay [5], the Kd turned out to be 42.3 nM, the koff came to 0.0436 s⁻¹ and the kon was 1.03e+06 M⁻¹ s⁻¹. In assay [4], the Kd came to 327 nM, the koff was determined as 0.0559 s⁻¹ and the kon is 171000 M⁻¹ s⁻¹.

B9: anti-NGF canine IgGB antibody, Fc variant N434R + D312P (antibody, part only; not given: anti-NGF variable domains and light chain, not shown: another chain or arm of the molecule)
Fc: APEMLGGPSVFIFPPKPKDTLLIARTPEVTCVVVDLDPEDPEVQISWFVDGKQMQTAKTQPREEQFNGTYRVVSVLPIGHQPWLKGKQFTCKVNNKALPSPIERTISKARGQAHQPSVYVLPPSREELSKNTVSLTCLIKDFFPPDIDVEWQSNGQQEPESKYRTTPPQLDEDGSYFLYSKLSVDKSRWQRGDTFICAVMHEALHRHYTQESLSHSPGK
For the molecule B9, in assay [3], the Kd turned out to be 104 nM and the kon is 4.95e+08 M⁻¹ s⁻¹. In assay [4], this molecule yielded a Kd of 197 nM, a koff of 0.048 s⁻¹ and a kon of 244000 M⁻¹ s⁻¹.

B10: canine IgGB Fc (CH2-CH3) T286Y with N-terminal SASA tag (Fc fusion, part only; not given: SASA tag, not shown: another chain or arm of the molecule; small tags and cut ends)
Fc: APEMLGGPSVFIFPPKPKDTLLIARTPEVTCVVVDLDPEDPEVQISWFVDGKQMQYAKTQPREEQFNGTYRVVSVLPIGHQDWLKGKQFTCKVNNKALPSPIERTISKARGQAHQPSVYVLPPSREELSKNTVSLTCLIKDFFPPDIDVEWQSNGQQEPESKYRTTPPQLDEDGSYFLYSKLSVDKSRWQRGDTFICAVMHEALHNHYTQESLSHSPGK
As for B10, in assay [6], the Kd is 69.8 nM and 116 nM; the kon was 410000 M⁻¹ s⁻¹ and 1.11e+06 M⁻¹ s⁻¹. In assay [1], this molecule displayed a Kd of 632 nM, a koff of 0.162 s⁻¹ and a kon of 256000 M⁻¹ s⁻¹.

B11: anti-NGF canine IgGB antibody, Fc variant A426H + T286L (antibody, part only; not given: Anti-NGF variable domains, not shown: another chain or arm of the molecule; small tags and cut ends)
Fc: APEMLGGPSVFIFPPKPKDTLLIARTPEVTCVVVDLDPEDPEVQISWFVDGKQMQLAKTQPREEQFNGTYRVVSVLPIGHQDWLKGKQFTCKVNNKALPSPIERTISKARGQAHQPSVYVLPPSREELSKNTVSLTCLIKDFFPPDIDVEWQSNGQQEPESKYRTTPPQLDEDGSYFLYSKLSVDKSRWQRGDTFICHVMHEALHNHYTQESLSHSPGK
On to B11, for which, in assay [3], the Kd was 1600 nM, the koff was 0.13 s⁻¹ and the kon amounted to 81200 M⁻¹ s⁻¹. Further, in assay [5], the Kd was 35.8 nM, the koff is 0.0417 s⁻¹ and the kon worked out at 1.16e+06 M⁻¹ s⁻¹. For the same molecule, in assay [4], the Kd amounted to 464 nM, the koff stood at 0.069 s⁻¹ and the on-rate constant (kon) was 149000 M⁻¹ s⁻¹.

B12: anti-NGF canine IgGB antibody, Fc variant A426H + D312P (antibody, part only; not given: Anti-NGF variable domains, not shown: another chain or arm of the molecule; small tags and cut ends)
Fc: APEMLGGPSVFIFPPKPKDTLLIARTPEVTCVVVDLDPEDPEVQISWFVDGKQMQTAKTQPREEQFNGTYRVVSVLPIGHQPWLKGKQFTCKVNNKALPSPIERTISKARGQAHQPSVYVLPPSREELSKNTVSLTCLIKDFFPPDIDVEWQSNGQQEPESKYRTTPPQLDEDGSYFLYSKLSVDKSRWQRGDTFICHVMHEALHNHYTQESLSHSPGK
In the case of B12, the Kd in assay [3] turned out to be 722 nM; in assay [5] it was 40.5 nM; in assay [4], 376 nM. Also, the koff in assay [3] amounted to 0.156 s⁻¹; in assay [5], 0.0532 s⁻¹; in assay [4] it was 0.0547 s⁻¹. Besides, the kon in assay [3] came out at 217000 M⁻¹ s⁻¹; in assay [5], 1.31e+06 M⁻¹ s⁻¹; in assay [4] it was 145000 M⁻¹ s⁻¹.

B13: anti-NGF canine IgGB antibody, Fc variant N434R + T286Y (antibody, part only; not given: anti-NGF variable domains and light chain, not shown: another chain or arm of the molecule)
Fc: APEMLGGPSVFIFPPKPKDTLLIARTPEVTCVVVDLDPEDPEVQISWFVDGKQMQYAKTQPREEQFNGTYRVVSVLPIGHQDWLKGKQFTCKVNNKALPSPIERTISKARGQAHQPSVYVLPPSREELSKNTVSLTCLIKDFFPPDIDVEWQSNGQQEPESKYRTTPPQLDEDGSYFLYSKLSVDKSRWQRGDTFICAVMHEALHRHYTQESLSHSPGK
For B13, in assay [3], the Kd came out at 81.2 nM and the kon was 3.4e+08 M⁻¹ s⁻¹. In assay [4], this molecule yielded a Kd of 93.7 nM, a koff of 0.0221 s⁻¹ and a kon of 236000 M⁻¹ s⁻¹.

B14: anti-NGF canine IgGB antibody, Fc variant N434R + Y436H (antibody, part only; not given: Anti-NGF variable domains, not shown: another chain or arm of the molecule)
Fc: APEMLGGPSVFIFPPKPKDTLLIARTPEVTCVVVDLDPEDPEVQISWFVDGKQMQTAKTQPREEQFNGTYRVVSVLPIGHQDWLKGKQFTCKVNNKALPSPIERTISKARGQAHQPSVYVLPPSREELSKNTVSLTCLIKDFFPPDIDVEWQSNGQQEPESKYRTTPPQLDEDGSYFLYSKLSVDKSRWQRGDTFICAVMHEALHRHHTQESLSHSPGK
In assay [3], B14 yielded a Kd of 382 nM, a koff of 0.255 s⁻¹ and a kon of 666000 M⁻¹ s⁻¹. In assay [4], this molecule had a Kd of 320 nM, a koff of 0.0838 s⁻¹ and a kon of 262000 M⁻¹ s⁻¹.
